Measurements reported in the supplement of paper PMC9233669.
Fewer inactive variants are shown than the library holds.

Columns and labels:
[1] = tested on: biotinyl-Phe-oxazolone; assay: self-aminoacylation, catalytic enhancement (BFO) (fold over background); higher = more active; k-Seq, kA / k0A0; sequences stand for … in GGGAAUGGAUCCACAUCUACGAAUUC…UUCACUGCAGACUUGACGAAGCUG
Outline: (§1)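 Working in 50 μL HEPES/NaCl/KCl/MgCl2/CaCl2 buffer with 5% acetonitrile at pH 6.9–7.0, mutagenized RNA pools (0.43 μM; 21-nt variable region) were reacted with 2–1250 μM of each biotinyl-aminoacyl-oxazolone for 90 minutes at room temperature. Streptavidin capture followed, with quantification by triplicate qPCR and Illumina sequencing. Catalytic enhancement is reported as median kA over the uncatalyzed rate, the low-activity peak of a bimodal Gaussian fit to the data.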

[2] = tested on: biotinyl-Ile-oxazolone; assay: self-aminoacylation, catalytic enhancement (BIO) (fold over background); higher = more active; k-Seq, kA / k0A0; sequences stand for … in GGGAAUGGAUCCACAUCUACGAAUUC…UUCACUGCAGACUUGACGAAGCUG
Outline: as §1

[3] = tested on: biotinyl-Leu-oxazolone; assay: self-aminoacylation, catalytic enhancement (BLO) (fold over background); higher = more active; k-Seq, kA / k0A0; sequences stand for … in GGGAAUGGAUCCACAUCUACGAAUUC…UUCACUGCAGACUUGACGAAGCUG
Outline: as §1

[4] = tested on: biotinyl-Trp-oxazolone; assay: self-aminoacylation, catalytic enhancement (BWO) (fold over background); higher = more active; k-Seq, kA / k0A0; sequences stand for … in GGGAAUGGAUCCACAUCUACGAAUUC…UUCACUGCAGACUUGACGAAGCUG
Outline: as §1

[5] = tested on: biotinyl-Met-oxazolone; assay: self-aminoacylation, catalytic enhancement (BMO) (fold over background); higher = more active; k-Seq, kA / k0A0; sequences stand for … in GGGAAUGGAUCCACAUCUACGAAUUC…UUCACUGCAGACUUGACGAAGCUG
Outline: as §1

[6] = tested on: biotinyl-Val-oxazolone; assay: self-aminoacylation, catalytic enhancement (BVO) (fold over background); higher = more active; k-Seq, kA / k0A0; sequences stand for … in GGGAAUGGAUCCACAUCUACGAAUUC…UUCACUGCAGACUUGACGAAGCUG
Outline: as §1

Sequence	self-aminoacylation [1]	self-aminoacylation [2]	self-aminoacylation [3]	self-aminoacylation [4]	self-aminoacylation [5]	self-aminoacylation [6]
CCACAGUUUAAGCAAUCGGUC [Fam1B.1 aminoacylation ribozyme variant]	0.825	0.82	0.786	0.708	0.857	0.758
CUACUCCAAACAAUCGGUCUA [Fam1A.1 aminoacylation ribozyme variant]	2.18	0.767	0.746	1.05	0.638	0.808
AACUUUGCUAAUAGUCUCAAG [Fam3.1 aminoacylation ribozyme variant]	3.43	1.47	1.54	1.5	1.39	1.42
CCACACUUCAGGCAAUCAGUC [Fam1B.1 aminoacylation ribozyme variant]	0.955	0.658	0.636	0.796	0.724	1.05
AAGUUUGGUGAUAGUCGCAAG [Fam3.1 aminoacylation ribozyme variant]	2.03	1.36	1.43	1.42	1.51	1.23
CCAUACGUCAAGCAAUCGGUC [Fam1B.1 aminoacylation ribozyme variant]	0.88	1.04	1.34	1.16	1.03	1.12
CUACACUUCACGCAAUCGGUC [Fam1B.1 aminoacylation ribozyme variant]	0.68	0.801	0.758	0.895	0.777	0.888
AUUCACCUAUGUCAUCAGGUG [Fam2.2 aminoacylation ribozyme variant]	8.58	1.72	2.75	2.33	2.39	1.64
AGUCACCGAGGUCAUCGGGUG [Fam2.2 aminoacylation ribozyme variant]	32.8	4.06	4.81	5.81	5.09	4.46
AUCACCAUGGUCAUCGAGUGA [Fam2.1 aminoacylation ribozyme variant]	58.9	5.49	11.7	13.2	10.3	5.56
AGUACCCUGGUCGUCGAGUGA [Fam2.1 aminoacylation ribozyme variant]	8.09	1.37	1.53	1.54	1.05	1.24
CCACACUUCAAGCAAGCGGUC [Fam1B.1 aminoacylation ribozyme variant]	0.769	0.87	0.785	0.62	0.791	0.961
CCACACUUCAACUAAUCGGUC [Fam1B.1 aminoacylation ribozyme variant]	22.8	0.859	1.04	11.6	0.753	0.925
AGUCACCCAGGUCAUCGGGUG [Fam2.2 aminoacylation ribozyme variant]	57.4	5.28	4.72	4.54	4.56	4.29
ACUCACCUAGGUCAUCGGGGG [Fam2.2 aminoacylation ribozyme variant]	22.1	3.75	3.57	4.06	3.42	3.19
ACACACUUCAAGCAAUCAGUC [Fam1B.1 aminoacylation ribozyme variant]	9.33	1.12	0.999	4.18	0.988	1.11
CCACACUUCAAGCAAUCCGUU [Fam1B.1 aminoacylation ribozyme variant]	0.872	1.4	1.27	1.45	1.31	1.27
AUUCACCUAAGUGAUCGGGUG [Fam2.2 aminoacylation ribozyme variant]	9.9	1.65	2.94	2	2.25	1.77
CUUACCAUGGUCAUCGAGUGA [Fam2.1 aminoacylation ribozyme variant]	14.4	3.16	5.9	7.03	5.89	3
CUACGUCAAACACUCGGUCUG [Fam1A.1 aminoacylation ribozyme variant]	10.9	1.85	1.83	2.65	1.6	2.18
AUUCCACUGGUCAUCGAGUGA [Fam2.1 aminoacylation ribozyme variant]	28.1	3.72	6.67	7.09	5.86	3.82
AUUCACCUAGGUUACCGGGUG [Fam2.2 aminoacylation ribozyme variant]	18.5	2.49	3.98	3.78	3.68	2.63
CUACUUCAAACCAUCGGUCUG [Fam1A.1 aminoacylation ribozyme variant]	0.956	0.794	0.661	0.673	0.702	0.833
AUUAACCUAGGUCAUCGGGUA [Fam2.2 aminoacylation ribozyme variant]	262	17.7	46.4	20.3	33.2	13.9
AUUCACCUAGGUCACCGGCUG [Fam2.2 aminoacylation ribozyme variant]	12.9	2.51	3.16	2.12	2.27	2.36
CCACACUUCAAGCAACCGAUC [Fam1B.1 aminoacylation ribozyme variant]	1.05	0.665	0.45	0.75	0.559	0.684

Sequence	self-aminoacylation [1]	self-aminoacylation [2]	self-aminoacylation [3]	self-aminoacylation [4]	self-aminoacylation [5]	self-aminoacylation [6]
AUUCACCUAGGUCACCGGGAG [Fam2.2 aminoacylation ribozyme variant]	5.9	1.49	1.77	1.81	2.05	1.43
AUUACCCUGGUCAUCUAGUGG [Fam2.1 aminoacylation ribozyme variant]	2.7	1.3	2.32	2.08	2.14	1.48
AUGAUCCUGGUCAUCGAGUGA [Fam2.1 aminoacylation ribozyme variant]	14	4.83	9.67	9.32	9.84	4.44
AUUACUCUGAUCAUCGAGUGA [Fam2.1 aminoacylation ribozyme variant]	19.3	2.93	5.35	6.7	5.85	2.95
UAGUUUGCUAAUGGUCGCAAG [Fam3.1 aminoacylation ribozyme variant]	1.19	1.11	0.81	1.22	1.17	1.1
CUACUUCAAUCAAUCGGUAUG [Fam1A.1 aminoacylation ribozyme variant]	10.8	0.797	0.88	6.33	0.961	0.848
CUACUUCAAACAAUCUGUAUG [Fam1A.1 aminoacylation ribozyme variant]	0.672	0.642	0.607	0.471	0.647	0.73
AUUACCGUGUUCAUCGAGUGA [Fam2.1 aminoacylation ribozyme variant]	20.2	3.72	6.23	8.08	6.78	3.92
AAUACCCUGGUCAUCGAGUAA [Fam2.1 aminoacylation ribozyme variant]	3.36	1.41	1.93	1.32	1.51	1.54
AUUACCUUGGUCAUCGAAUGA [Fam2.1 aminoacylation ribozyme variant]	0.902	1.14	1.1	0.837	0.77	0.945
GAGUUUGCUAAUAGUCGCAUG [Fam3.1 aminoacylation ribozyme variant]	2.24	1.59	1.25	1.17	1.59	1.44
AAGUUUGCUAAUAGUCGCAGG [Fam3.1 aminoacylation ribozyme variant]	2.2	1.29	1.38	1.45	1.31	1.31
AUUCACCUAGGUUAUGGGGUG [Fam2.2 aminoacylation ribozyme variant]	78.4	5.44	11.2	8.28	8.25	4.76
AUUACCCUGGUCAUCGGAUGA [Fam2.1 aminoacylation ribozyme variant]	0.931	1.4	1.65	1.62	1.16	1.36
AUUACCCUGGACAUCGAAUGA [Fam2.1 aminoacylation ribozyme variant]	0.708	1.23	0.96	0.378	0.846	0.895
AUUCACCUUGGUCAUCGCGUG [Fam2.2 aminoacylation ribozyme variant]	117	8.37	18.2	14.1	15.3	8.42
GAUUUUGCUAAUAGUCGCAAG [Fam3.1 aminoacylation ribozyme variant]	2.53	1.99	1.82	2.99	2.2	1.83
GUUACCUUGGUCAUCGAGUGA [Fam2.1 aminoacylation ribozyme variant]	21.1	4.39	7.14	9.03	7.16	4.21
CCACACUUCAAGCAAACGCUC [Fam1B.1 aminoacylation ribozyme variant]	0.677	0.956	1.01	1.37	1.41	0.912
AAUACCCUGGUCAUCGAGAGA [Fam2.1 aminoacylation ribozyme variant]	0.87	0.653	0.673	0.752	0.552	0.65
AUUACCAUGGUCAACGAGUGA [Fam2.1 aminoacylation ribozyme variant]	32.6	4.28	7.89	10	7.33	4.12
CCACGCUUCAAUCAAUCGGUC [Fam1B.1 aminoacylation ribozyme variant]	30.8	1.01	1.34	20	0.865	1.18
AUUCACCUAGAUUAUCGGGUG [Fam2.2 aminoacylation ribozyme variant]	53.7	4.48	9	6.65	7.21	4.18
AUACUUCAAACAUUCGGUCUG [Fam1A.1 aminoacylation ribozyme variant]	1.19	1.18	1.09	1.11	1.09	1.1
AGUACCCUGGUCAUCGAGAGA [Fam2.1 aminoacylation ribozyme variant]	1.36	0.994	1.14	0.788	0.888	0.901
